The source of these data is article PMC10945758 (Proceedings of the National Academy of Sciences of the …, 2024).

Where a chain is given by its changes, count along the chain named.

The target in one data set is T1, mouse TIFA(1−150/C36S) (mouse, UniProt Q793I8 1-150, C36S).
T1 sequence (looked up): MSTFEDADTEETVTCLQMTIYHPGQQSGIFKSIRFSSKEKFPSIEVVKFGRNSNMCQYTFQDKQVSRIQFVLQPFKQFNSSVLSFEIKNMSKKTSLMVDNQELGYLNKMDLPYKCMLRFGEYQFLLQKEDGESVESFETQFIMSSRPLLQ
The data set can be described thus: crystal structure.

In the next data set the target is T2, mouse TIFA(1−150) (mouse, UniProt Q793I8 1-150).
T2 sequence (looked up): T1 sequence (looked up) with S36C
The data set can be described thus: SEC.

The data set “SEC” deals with the molecule itself. Nature of the data set: SEC.

B1: mouse TIFAB(1−139) (domain or fragment, UniProt Q8JZM6 1-139, looked up)
chain: MERPLTVLQVSLYHPTQGPVAFAHVPQQLQHDASRLLVGRGQNTHLQLQLPQLSRYHLSLEPYLEKGSSLLAFCLKVLTRKSCVWVNGLPLRYLEQVPLGTINRISFSGIQMLVRKEGGASLETFVCYFHLSPSPLIYR
B1: the binding result with mouse TIFA(1−150/C36S) is listed as “binds”.

B2: mouse TIFAB, full length, coexpressed with TIFA (natural protein, UniProt Q8JZM6 1-147, looked up)
chain: MERPLTVLQVSLYHPTQGPVAFAHVPQQLQHDASRLLVGRGQNTHLQLQLPQLSRYHLSLEPYLEKGSSLLAFCLKVLTRKSCVWVNGLPLRYLEQVPLGTINRISFSGIQMLVRKEGGASLETFVCYFHLSPSPLIYRPKAQETDE
With B2, the binding result with mouse TIFA(1−150) was “binds”.

B3: mouse TIFA dimer (natural protein, UniProt Q793I8 1-184, looked up)
chain: MSTFEDADTEETVTCLQMTIYHPGQQSGIFKSIRFCSKEKFPSIEVVKFGRNSNMCQYTFQDKQVSRIQFVLQPFKQFNSSVLSFEIKNMSKKTSLMVDNQELGYLNKMDLPYKCMLRFGEYQFLLQKEDGESVESFETQFIMSSRPLLQENNWPTQNPIPEDGMYSSYFTHRSSPSEMDENEL
For B3, in “SEC”, the “stoichiometry N” value is 2.
